Literature values as cited in PMC7465391, “1,4-Disubstituted 1,2,3-Triazoles as Amide Bond Surrogates for the Stabilisation of Linear Peptides with Biological Activity” (Molecules, 2020).

Target: delta opioid receptor (DOPr) (UniProt P41143)
Assay: radioligand

Ki: 6.3 nM
Substance: Leu-enkephalin
